In the nanobody polyreactivity screen of Harvey et al. (2022):

Assay: yeast display, Sf9 membrane polyspecificity reagent, FACS + sequencing; frameworks hold sequencing errors
Summary of the method: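 Nanobodies came from a synthetic yeast display library in Saccharomyces cerevisiae BJ5465, induced with galactose for 36–48 hours and stained for 1 hour at 4 °C with 10% biotinylated, detergent-solubilized Sf9 membrane reagent. Cells were enriched on streptavidin microbeads and then FACS-sorted, with low and high (top ~1%) gates set on anti-HA fluorescence for expression and streptavidin fluorescence for reagent binding. Each polyreactivity label reflects the gate a clone came from. Genes were amplified by colony PCR, sequenced by MiSeq 2 × 250 and filtered by CDR length.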

With “QVQLVESGGGLVQAGGSLRLSCAASGITFRSYAMGWYRQAPGKERELVATISWSGGITYYADSVKGRFTISRDNAKNTVYLQMNSLKPEDTAFYYCAKASQSWGRVDYYYWGLGTQVTVSS” the “polyreactivity (PSR sort gate)” value was “low polyreactivity”.

For “QVQLVESGGGLVQAGGSLRLSCAASGRIVKYAMGWYRQAPGKERELVAAITSGGSTTYADSVKGRFTISRDNAKNTVYLQMNSLKPEDTAVYYCKALRRARYTRKGYEYWGQGTQVTVSS”, the “polyreactivity (PSR sort gate)” value was “high polyreactivity”.

In the case of “QVHLVESGGGLVQAGGSLRLSCAASGLIFYFYAKGWYRQAPGKERELVAGITNGGSTNYADSVKGRFTISRDNAKNTVYLQMNSLKPEDTAVYYCAAQYYTVRSTYDYWGQGTQVTVSS”, the “polyreactivity (PSR sort gate)” value is reported as “high polyreactivity”.

With “QVQLVESGGGLVQAGGSLRLSCAASGRIFTNYAMGWYREAPGKERELVAAINYSGGNTYYADSVKGRFTISRDNAKNTVYLQMNSLIPEDTAVYYCNAPILPRYRRYDYWGQGTQVTVSS” the “polyreactivity (PSR sort gate)” value was “low polyreactivity”.

In the case of “QVQLVESGGGLVQAGGSLRLSCAASGYTFSRYAMGWYRQAPGKERELVAAITSRGGRTYYADSVKVRFTISRDNAKNTVFLQMNSLKPEDNAVYYCAADVIFWRTGYDYWGPGTQVTVSS”, the “polyreactivity (PSR sort gate)” value is reported as “high polyreactivity”.

With “QVQLVESGGGLVQAGGSLRLSCAASGFTFHFYAMGWYRQAPGKEREWVAAISWRGSSTYYADSVKGRFTISRDNAKNTVYLQMNSLKPEDTAVYYWNALYYYPYDYWGQGTQVTVSS” the “polyreactivity (PSR sort gate)” value was “high polyreactivity”.

In the case of “QVQLVESGGGLVQAGGSLRLSCAASGRISESNDMGWYRQAPGKEREVVAAISSSGGSTYYADSVKGRFTISRDNAKNTVYLQMNSLKPEETAVDYCNAVYYRTVLKIGVYEYDYWGQGTQVTVST”, the “polyreactivity (PSR sort gate)” value is reported as “low polyreactivity”.

With “QVQLVESGGGLVQAGGSLRLTCAASGSISFGYAMGWYRQAPGKERELVAAITWSTARTYYADSVKGRFTISRDNAKNTVYLQMNSLKPEDTAVYYCAKGGYWGQGTQVTVSS” the “polyreactivity (PSR sort gate)” value was “high polyreactivity”.

With “QVQLVESGGGLVQAGGSLRLSCAASGRTFNSYAMGWYRQAPGKEWELVASISSGGSTYYADSVKGRFTLSRDNAKNTDYLQMNSLKPEDTAVYYCAAKSVAYYSYFRRDYWGQGTQVTVSS” the “polyreactivity (PSR sort gate)” value was “low polyreactivity”.

In the case of “QVQLVESGGGLVQAGGSLRLSCAASGSTFYVNAMGWYRQAPGTERELVAAIRSAGRTNYADSVKGRFTSSRDNAKNTVYLQMNSLKPEDTAVYYCAAEVPHWPYYGRLHDRDYWGQGTQVTVSS”, the “polyreactivity (PSR sort gate)” value is reported as “low polyreactivity”.

In the case of “QVQLVESGGGLVQAGGSLRLSCAASGFIFDVYAMGWYRQAPGKERELVAAISVSSTNYADSVKGRFTISRDNAKNTVYLQMNSLKPEDTAVYYCAADTYTYFLASYLYGQYDYWGQGTQVTVSS”, the “polyreactivity (PSR sort gate)” value is reported as “low polyreactivity”.

With “QVQLVESVGGLVQAGGSLRLSCAASARIFRYYAMGWDRQAPGKERELVAAITWNGGSTYYADSVKGRFTISRDNAKNTVYVQLNSLKPEDTAVYYCAAVSYYTHYRLPYDYWGQGTQVTVSS” the “polyreactivity (PSR sort gate)” value was “high polyreactivity”.

For “QVQLVESGGGLVQAGGSLRLSCAASGSTFRQNAMGWYRQAPGKERELVAAITYRVASTYYADSVKGRFTISRDNAKNTVYLQMNSLKPEDSAVYYCAAYKRRSNGRYWTYDYWGQGSQVTVSS”, the “polyreactivity (PSR sort gate)” value was “high polyreactivity”.

With “QVQLVESGGGLVQAGGRLRLSCAASGYIFGWNAMGWYRQAPGKERELVAAISSGGNTKYADSVKGRFTISRDNAKNTVYLQMNSLKPEDTAVYYCNADFRVYIPHVPYFVDFDYWGQGTQVTVSS” the “polyreactivity (PSR sort gate)” value was “low polyreactivity”.

With “QVQLVESGGGLVQAGVSLSLSCAGSGFIFFQYPMGWYRDAPGKDRELVAAISGSGVTTYYADSVKGRFTISRDYAKKTVYLQMNSLKPEDTAVYYCAALHYRIRRTGMDYWGQGTQVTVSS” the “polyreactivity (PSR sort gate)” value was “low polyreactivity”.

For “QDQLVESGGGLVQAGGSLGLSCAASGLTFSYYAMAWYRQAPGKERELVAAIDYSGGTTYADSVKGRFTISRDNAKNTVYLQMNSLKPEDTAVYYCADAPDGWFASGDEYWGQGTQVTVSS”, the “polyreactivity (PSR sort gate)” value was “high polyreactivity”.

In the case of “QVQLVESGGGLVQAGGSLRLSCAASGSTFYANLMGWYRQAPGKEWEFVAAIDGSGGRTYYADSVKGRFTISRDNAKNTVYLQMNSLKPEVTAVYYCAKKRIVPVIQFGRDYNYWGQGKQVTVSS”, the “polyreactivity (PSR sort gate)” value is reported as “high polyreactivity”.

For “QVLLVESGGGLVQAGGSLRLSCAASGSTFPGNAMGWYRQAPGKERELVARINDGADTNYADSVKGRFTISRDNAKNTVNLQMNSLKPEDTAVYYCATPYYDGRTHFDSWGQGTQVTVSS”, the “polyreactivity (PSR sort gate)” value was “low polyreactivity”.

With “QFQLVESGGGLVQAGGSLSLSCAASGSTFSFNARGSYRQAPGKERELVAAITSGGSTYYADSVKGRFTISRDNAKNTVYLQMNSLKPEDTAVYYCAAAWAYGFGTRRYYWGQGTQVTVSS” the “polyreactivity (PSR sort gate)” value was “high polyreactivity”.

With “QVQLVESGGGLVQAGGSLRLSCAASGIIFYSYAMGWYRQAPGKERELVAAISRRGTSTFYADSVKGRFTISRDNAKNTVYLQMNSLKPEDTAVSYCNARYKYYRGSGMDSWGQGTQVTVSS” the “polyreactivity (PSR sort gate)” value was “high polyreactivity”.

With “QVQLVESGGGLVQAGGSLRLSCAASGFTFGGYAMGWYRQAPGKERELVAAIRSTGDTTYYADSVKGRFTISRDNAKNTVYVQMNSLKPEDTAVYYCNADLSRDNDFDYWGQGTQVTVSS” the “polyreactivity (PSR sort gate)” value was “low polyreactivity”.

With “QVQLVESGGGLVQAGGSLRLSCAASGITFYDYAMGWYRQAPGKERELVAAISGGGITYYADSVKGRFTISRDNAKNTVYLQMNSLKPEDTAVYYCAAERYSPSVGYDYWGQGTQVTVSS” the “polyreactivity (PSR sort gate)” value was “low polyreactivity”.

In the case of “QVQLVESVGGLVQAGGSHRLSCAASGRTFYQYTMGWSRQAPGTERELVAAITTSTGNTYYADSVKVRFTISRDNAKNTVYLQMNRLKPADTAVYECAADTVWPLDYWGLGTQVTVSS”, the “polyreactivity (PSR sort gate)” value is reported as “low polyreactivity”.

With “QVQLVESGGGLVQAGGSLRLSCAASGRIFFYYVMGWYRQAPGKERELVAAITRSGGSTYYADSVKGRFTISRDNAKNTVYLQMNSLKPEDTAVYYCSVGDGFEYDWGQGTQVTVSS” the “polyreactivity (PSR sort gate)” value was “low polyreactivity”.

For “QVQLVESVGGLVQAGGSLRLSCAGSGFTFYRYTMGWYRQAPGTERELVAAISFSGGITRYADSVKGRFTISRDNAKNTVYLQMNSLKPEDTAVYYCNVVGPSAYLSWHKSGDYWGQGTQVTVSS”, the “polyreactivity (PSR sort gate)” value was “low polyreactivity”.

For “QVQLVESGGGVVQAGRSLRLSCAASGRLFYEYAMGWYRQAPGKEREFVAAISYSGSRTYYADSVKGRFTISRDNAKYTVYLQLNCLIPEDTAVYYCAAVVAFGTGTFYYWGQGRQVTVSS”, the “polyreactivity (PSR sort gate)” value was “high polyreactivity”.

With “QVQLVESGGGLVQAGGSHRLSCAASGRTFYSYPMGWYRQAPGKEREIVAAIHWSGTTTYADSVKGRFTISRDNAKNTVYLEMNSLKPDATAVYYCAADRVSYIGAGWFDYWGQGTQVTVSS” the “polyreactivity (PSR sort gate)” value was “high polyreactivity”.

For “QVQLVESGGGLVQAGGSLRLSCAASGYIFYTYAMGWYRQAPGKERELVAGITGSGGSTYYADSVKGRFTISRDNAKNTVYLQMNSLKPEDTAVYYCANDIYQIGYRRYDSWGQGTQVTVSS”, the “polyreactivity (PSR sort gate)” value was “low polyreactivity”.

In the case of “QVQLVESGGGLVQAGGSLRLSCAASGNTFPGYAMGWYRQAPGKEREFVATITSNDGTTYYADSVKGRFTISRDNAKNTVYLQLNSLKPEDTAVYYCAKRLSDSWPPNWGYNYWGQGTQVTVSS”, the “polyreactivity (PSR sort gate)” value is reported as “low polyreactivity”.

In the case of “QVQLVESGGGLVQAGGSLRLRCAASGRIFREYAMGWYRQAPGKERELVAAITASGGGTYYADSVKGRFTISRDNAKNTVYLQMNSLKPEDTAVYYCAARYSSRTRNDYWGQGTQVTVSS”, the “polyreactivity (PSR sort gate)” value is reported as “low polyreactivity”.

With “QVQLVESGGGLVQAGGSLRLSCAASGFTFSWYAMGWYRQAPGKERELVAAISSAGNTNYADSVKGRFTISRDNAKNTVYLQMNSLKPEDTAVYYCAKRDYWGQGTQVTVSS” the “polyreactivity (PSR sort gate)” value was “high polyreactivity”.

With “QVQLVESGGALVQAGGSLRISCAASGLIIVRKAMGLYRQAPGKERELVAAIRWSGGSTYYADSVKGRFTISRDNGNNTVFLQMNRLKPEDTSVYYCAATGYGFDMDYWGQGTQVNVSS” the “polyreactivity (PSR sort gate)” value was “low polyreactivity”.

With “QVQLVESGGGLVQAGGSLRLSCAASGSIFYANAMGWYRQAPGKERELVAAISRSGGRTYYADSVKGRFTISRDNAKNTVYLQMNSLKPEDTAVYYCNAVYVSYTYQQTRSGGYDYWGQGTQVTVSS” the “polyreactivity (PSR sort gate)” value was “high polyreactivity”.

With “QVQLVESGGGLVQAGGSLRLSCAASGRTFVRYAMGWYRQAPGKERELVAAISGDGASTYYADSVKGRFTISRDNAKNTVYLQMNSLKPEDTAVYYCNARSIRRYYYPDYDYWGQGTQVTVSS” the “polyreactivity (PSR sort gate)” value was “high polyreactivity”.

In the case of “QVQLVESGGGLVQAGGSLRLSCAASGYTINPYAIGWYRQAPGKERELVATIRSSGSTNYADSVKGRFTISRDNAKYTVYLQRNSLKPEDTAVYYFAARTSGRTVRYYYWGQGTQVTVSS”, the “polyreactivity (PSR sort gate)” value is reported as “high polyreactivity”.

In the case of “QVQLVESGGGLVQAGGSLRLSCAASGRTFQYNAMGWNRQAPGKERELVAAISWSDGITYYADSVKGRFTISRDNAKNTVFLQMNSLKPEDTAVYYCAAEGYGLSYYFPYDYWGQGTQVTVSS”, the “polyreactivity (PSR sort gate)” value is reported as “high polyreactivity”.

With “QVQLVESWGVLVQAGGSLRLSCAASGSIIVNYDMGWYRQARGKERELVAAITWGGGRTYYADSVKRRFTISRDNAKNSVYLQMNSLKPEDTAVYYCAADFSWVINPYEYCGQGTQVTVSS” the “polyreactivity (PSR sort gate)” value was “low polyreactivity”.

In the case of “QVQLVESVGGLVQAGGSLRLSCAASGSTFWYNAMGWYRLAPGKERELVAAISQSGGRTYYADSVKGRFTISRDNAKNTVYLQMNSLKPEDTAVYYCNAVSRDKSLYDYWGQGTQVTVSS”, the “polyreactivity (PSR sort gate)” value is reported as “high polyreactivity”.

With “QVQLVESGGGLVQAGGSLRLSCAASGFIFTGYAMGWYRPAPRKERELVAAITKSGGSTYYADSVKGRFTISRDNAKNTVYLQMNSLKPEDTAVYYFNTYVWRWSKGGYWGHGTQVTVSS” the “polyreactivity (PSR sort gate)” value was “high polyreactivity”.

In the case of “QVQLVETGAGLVQAGGSLRLSCAASGRTFDDNAMGWSRQATGEVRELVAAISSTGSTNYADSVKGRFTISRDNAKNTVYFQMNSLKPEDTAVYYCNTDRGHERAFYYWGQGTQVTVSS”, the “polyreactivity (PSR sort gate)” value is reported as “low polyreactivity”.

With “QVQLVESGGGLLQAGGSLRLSCAASGGTFSLNVMGWYRQAPGKEREFVATITYSGGSTYYADSVKGRFTISRDNAKNTVYLQMKSLKPEDTAVYYCAASFTYSQVTEPYGYWGQGSQVTVSS” the “polyreactivity (PSR sort gate)” value was “low polyreactivity”.

With “QVQLVESGGGLVQAGGSLRLSCAASGLTFGAYAMGWYRQAPGKERELVAAISDSGGTTYYADSVKGRFTISRDNAKNTVYLQMNSLKPEDTAVYYCAAVKSDVRYRYDYYWGQGTQVTVSS” the “polyreactivity (PSR sort gate)” value was “low polyreactivity”.

In the case of “QVQLVESGGGLVQAGGSLRLSCADSGRTFTGYVMGWYRQAPGKEREFVAVIRYRGGGTYYAYSVKGRFTISRDNAKNTVYLQMNSLKPEDTAVYYCSARWRYSYVGDFDYWGQGTQVTVSS”, the “polyreactivity (PSR sort gate)” value is reported as “high polyreactivity”.
